# In US20030092631A1 (Genentech, published 2003):
# B1: HPDKCFADVRALQECMESVR (peptide)
# chain: HPDKCFADVRALQECMESVRGGGSGGGAEGDDPAKAAFNSLQASATEYIGYAWAMVVVIVGATIGIKLFKKFTSKAS
# notes: naive clone; polyvalent P8 display on phage; STII signal left out
# B2: VKDECLMSVEALKNCMGLVS (peptide)
# chain: VKDECLMSVEALKNCMGLVSGGGSGGGAEGDDPAKAAFNSLQASATEYIGYAWAMVVVIVGATIGIKLFKKFTSKAS
# notes: as for B1
# B3: TAGIECAYDKHLDQYCWWKE (peptide)
# chain: TAGIECAYDKHLDQYCWWKEGGGSGGGAEGDDPAKAAFNSLQASATEYIGYAWAMVVVIVGATIGIKLFKKFTSKAS
# notes: as for B1
# B4: VMDQCFESYAEMRKCMLDGS (peptide)
# chain: VMDQCFESYAEMRKCMLDGSGGGSGGGAEGDDPAKAAFNSLQASATEYIGYAWAMVVVIVGATIGIKLFKKFTSKAS
# notes: as for B1
# B5: GAQAWLCEQREEWCGQMLGT (peptide)
# chain: GAQAWLCEQREEWCGQMLGTGGGSGGGAEGDDPAKAAFNSLQASATEYIGYAWAMVVVIVGATIGIKLFKKFTSKAS
# notes: as for B1
# B6: GEAAECAYDSLGMAYCYAKE (peptide)
# chain: GEAAECAYDSLGMAYCYAKEGGGSGGGAEGDDPAKAAFNSLQASATEYIGYAWAMVVVIVGATIGIKLFKKFTSKAS
# notes: as for B1
# B7: LSSEECWEALKWQGCLMSER (peptide)
# chain: LSSEECWEALKWQGCLMSERGGGSGGGAEGDDPAKAAFNSLQASATEYIGYAWAMVVVIVGATIGIKLFKKFTSKAS
# notes: as for B1
# B8: QIPAGCYESVQSLLECVQSA (peptide)
# chain: QIPAGCYESVQSLLECVQSAGGGSGGGAEGDDPAKAAFNSLQASATEYIGYAWAMVVVIVGATIGIKLFKKFTSKAS
# notes: as for B1
# B9: GASTTCLEKYRERQWCKELT (peptide)
# chain: GASTTCLEKYRERQWCKELTGGGSGGGAEGDDPAKAAFNSLQASATEYIGYAWAMVVVIVGATIGIKLFKKFTSKAS
# notes: as for B1
# B10: GVETCYSDAMNTQYCWTTEL (peptide)
# chain: GVETCYSDAMNTQYCWTTELGGGSGGGAEGDDPAKAAFNSLQASATEYIGYAWAMVVVIVGATIGIKLFKKFTSKAS
# notes: as for B1
# B11: YDWVEACQKWPVLCMDSTMY (peptide)
# chain: YDWVEACQKWPVLCMDSTMYGGGSGGGAEGDDPAKAAFNSLQASATEYIGYAWAMVVVIVGATIGIKLFKKFTSKAS
# notes: as for B1
# B12: GIREELCDKGLHKMCFREVR (peptide)
# chain: GIREELCDKGLHKMCFREVRGGGSGGGAEGDDPAKAAFNSLQASATEYIGYAWAMVVVIVGATIGIKLFKKFTSKAS
# notes: as for B1
# B13: STYSCIRDMGWAVYCWETTL (peptide)
# chain: STYSCIRDMGWAVYCWETTLGGGSGGGAEGDDPAKAAFNSLQASATEYIGYAWAMVVVIVGATIGIKLFKKFTSKAS
# notes: as for B1
# B14: VEEKCYESITALRHCMQAMQ (peptide)
# chain: VEEKCYESITALRHCMQAMQGGGSGGGAEGDDPAKAAFNSLQASATEYIGYAWAMVVVIVGATIGIKLFKKFTSKAS
# notes: as for B1
# B15: CECGKVSSRGCEKLCWLVSYM (peptide)
# chain: CECGKVSSRGCEKLCWLVSYMGGGSGGGAEGDDPAKAAFNSLQASATEYIGYAWAMVVVIVGATIGIKLFKKFTSKAS
# notes: as for B1
# B16: SGTACRWGPSWLLCSLAGSP (peptide)
# chain: SGTACRWGPSWLLCSLAGSPGGGSGGGAEGDDPAKAAFNSLQASATEYIGYAWAMVVVIVGATIGIKLFKKFTSKAS
# notes: as for B1
# B17: VESECLLSLPNLRRCMMDRL (peptide)
# chain: VESECLLSLPNLRRCMMDRLGGGSGGGAEGDDPAKAAFNSLQASATEYIGYAWAMVVVIVGATIGIKLFKKFTSKAS
# notes: as for B1
# B18: GEGPECDLRQWGNLCGHWET (peptide)
# chain: GEGPECDLRQWGNLCGHWETGGGSGGGAEGDDPAKAAFNSLQASATEYIGYAWAMVVVIVGATIGIKLFKKFTSKAS
# notes: as for B1
# B19: SFCEFNDWWPTCLV (peptide)
# chain: SFCEFNDWWPTCLVGGGSGGGAEGDDPAKAAFNSLQASATEYIGYAWAMVVVIVGATIGIKLFKKFTSKAS
# notes: as for B1
# B20: DAMDCVVGPEWRKCFLEG (peptide)
# chain: DAMDCVVGPEWRKCFLEGGGGSGGGAEGDDPAKAAFNSLQASATEYIGYAWAMVVVIVGATIGIKLFKKFTSKAS
# notes: as for B1
# B21: EAGAESRGWLQARCGELLGV (peptide)
# chain: EAGAESRGWLQARCGELLGVGGGSGGGAEGDDPAKAAFNSLQASATEYIGYAWAMVVVIVGATIGIKLFKKFTSKAS
# notes: as for B1
# B22: REVKCMKDLSGHEYCWAEPR (peptide)
# chain: REVKCMKDLSGHEYCWAEPRGGGSGGGAEGDDPAKAAFNSLQASATEYIGYAWAMVVVIVGATIGIKLFKKFTSKAS
# notes: as for B1
# B23: EVARCVVDAGGTWYCWAEMA (peptide)
# chain: EVARCVVDAGGTWYCWAEMAGGGSGGGAEGDDPAKAAFNSLQASATEYIGYAWAMVVVIVGATIGIKLFKKFTSKAS
# notes: as for B1
# B24: HWDWTGGYWWIGREPWKEAA (peptide)
# chain: HWDWTGGYWWIGREPWKEAAGGGSGGGAEGDDPAKAAFNSLQASATEYIGYAWAMVVVIVGATIGIKLFKKFTSKAS
# notes: as for B1
# B25: IECWQDLQGTRLCWE (peptide)
# chain: IECWQDLQGTRLCWEGGGSGGGAEGDDPAKAAFNSLQASATEYIGYAWAMVVVIVGATIGIKLFKKFTSKAS
# notes: as for B1
# B26: GESTCVTDLERVEYCWDEKS (peptide)
# chain: GESTCVTDLERVEYCWDEKSGGGSGGGAEGDDPAKAAFNSLQASATEYIGYAWAMVVVIVGATIGIKLFKKFTSKAS
# notes: as for B1
# Molecular target: T1, IGF-1 (human, UniProt P05019 49-118)
# T1 construct: mature; also called insulin-like growth factor-1; rhIGF-1
# T1 sequence (P05019 49-118): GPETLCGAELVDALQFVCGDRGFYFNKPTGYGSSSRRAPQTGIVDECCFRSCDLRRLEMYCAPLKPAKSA
# Test: phage ELISA, IGF-1 on plate
# Description: (§1) From each round, individual peptide-displaying phage were isolated and analyzed for binding to IGF-1 in a phage ELISA by capturing the peptide-phage with IGF-1 immobilized on a plate, and detecting bound phage (see below). As a control for non-specific binding, the phage were also analyzed in a phage ELISA that used plates coated with BSA. […]
# (§2) MAXISORP™ immunoplates (96-well) were coated with capture target protein for 2 hours at room temperature (100 μL at 5 μg/mL in 50 mM carbonate buffer, pH 9.6). The plates were then blocked for 1 h with 0.2% BSA in phosphate-buffered saline (PBS) and washed eight times with PBS, 0.05% TWEEN®-20 detergent. Phage particles were serially diluted into BSA blocking buffer and 100 μL were transferred to coated wells. After I h, plates were washed eight times with PBS, 0.05% TWEEN®-20 detergent, incubated with 100 μL of 1:3000 horse radish peroxidase/anti-M 13 antibody conjugate in BSA blocking buffer for 30 min. and then washed eight times with PBS, 0.05% TWEEN®-20 detergent and two times with PBS. Plates were developed using a tetramethylbenzidine substrate (TMB, Kirkegaard and Perry, Gaithersburg, Md.), stopped with 1.0 M H3PO₄, and read spectrophotometrically at 450 nm.
row,Binder,binding result
1,B1,binds
2,B2,binds
3,B3,binds
4,B4,binds
5,B5,binds
6,B6,binds
7,B7,binds
8,B8,binds
9,B9,binds
10,B10,binds
11,B11,binds
12,B12,binds
13,B13,binds
14,B14,binds
15,B15,binds
16,B16,binds
17,B17,binds
18,B18,binds
19,B19,binds
20,B20,binds
21,B21,binds
22,B22,binds
23,B23,binds
24,B24,binds
25,B25,binds
26,B26,binds

# Molecular target: T1, IGF-1
# Test: cell-based or functional assay
Binder,IGF-1 KIRA,Insulin KIRA
WRCVDDLGGFQYCWAG [F2-2],130 µM,93.6 µM
ARCVVDAGGTWYCWAG [F2-P],,300 µM
DECLMSVEALKNCMGG [F1-P],400 µM,183 µM
LGCASDLAGFWYCWAG [F2-1],,40.4 µM

# Molecular target: BSA (UniProt P02769 25-607)
# Sequence (P02769 25-607 limits assumed): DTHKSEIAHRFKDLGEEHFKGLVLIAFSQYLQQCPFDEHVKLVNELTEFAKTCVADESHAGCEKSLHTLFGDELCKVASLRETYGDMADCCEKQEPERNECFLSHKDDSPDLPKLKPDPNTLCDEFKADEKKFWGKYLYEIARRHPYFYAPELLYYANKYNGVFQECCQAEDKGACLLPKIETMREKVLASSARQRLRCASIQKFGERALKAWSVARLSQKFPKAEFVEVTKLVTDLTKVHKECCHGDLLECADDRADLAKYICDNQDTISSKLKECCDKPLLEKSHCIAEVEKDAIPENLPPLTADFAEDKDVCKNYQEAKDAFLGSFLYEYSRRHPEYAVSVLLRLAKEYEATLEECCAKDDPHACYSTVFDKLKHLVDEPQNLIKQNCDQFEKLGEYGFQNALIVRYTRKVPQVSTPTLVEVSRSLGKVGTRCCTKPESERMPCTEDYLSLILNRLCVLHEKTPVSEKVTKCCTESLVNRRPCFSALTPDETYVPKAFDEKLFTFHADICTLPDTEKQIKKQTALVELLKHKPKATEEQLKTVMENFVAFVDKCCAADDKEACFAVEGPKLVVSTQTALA
# Test: phage ELISA, BSA on plate
# Description: as §1, §2
row,Binder,binding result
1,B1,no binding
2,B2,no binding
3,B3,no binding
4,B4,no binding
5,B5,no binding
6,B6,no binding
7,B7,no binding
8,B8,no binding
9,B9,no binding
10,B10,no binding
11,B11,no binding
12,B12,no binding
13,B13,no binding
14,B14,no binding
15,B15,no binding
16,B16,no binding
17,B17,no binding
18,B18,no binding
19,B19,no binding
20,B20,no binding
21,B21,no binding
22,B22,no binding
23,B23,no binding
24,B24,no binding
25,B25,no binding
26,B26,no binding
